Test [1] deals with human OX40 on cells (human) (UniProt P43489). The experiment in a line: flow cytometry on human PBMCs activated with anti-CD3/CD28 beads, 50 nM antibody.
Test [2] shares this target. The test can be described thus: cell-based or functional assay.

Experimental findings from patent US20230139700A1 are described below.

Chain of human OX40 on cells (human) (P43489 29-277): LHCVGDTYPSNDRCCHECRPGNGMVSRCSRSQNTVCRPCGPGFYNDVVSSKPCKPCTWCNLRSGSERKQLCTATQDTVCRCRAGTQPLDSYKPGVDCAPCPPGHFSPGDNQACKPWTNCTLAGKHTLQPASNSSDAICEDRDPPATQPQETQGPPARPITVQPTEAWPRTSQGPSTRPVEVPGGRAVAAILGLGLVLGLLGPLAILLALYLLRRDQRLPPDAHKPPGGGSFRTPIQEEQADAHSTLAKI

In test [1], IgG1 (antibody) gave a Binding percentage % of 23% and an MFI (ten thousand) of 7000. In test [2], OX40L (ligand) registered a Luciferase IFM, Jurkat-hOX40-NFκB-2 cells of 59000.
